In PMC8683598:

How the values were obtained:
[1] = target: FLAG-T. castaneum methoprene-tolerant (T. castaneum); experiment: native MS; purified methoprene-bound complex exchanged into 200 mM ammonium acetate pH 7.4, nano-ESI, Synapt G2Si
[2] = target: FLAG-T. castaneum methoprene-tolerant (T. castaneum); experiment: SEC-MALS; purified complex loaded at ~5 mg/ml, Superdex 200 10/300, 50 mM Tris, 350 mM NaCl, 10 uM methoprene, 2 mM MgCl2, 100 uM TCEP, pH 8.0; peak fractions checked by SDS-PAGE

In the case of “His6-Tribolium castaneum taiman (TcTAI) (domain or fragment)”, the stoichiometry N [1] is reported as 1 and the stoichiometry N [2] is reported as 1.
